From publication PMC10506094

Columns and labels:
[1] = target: Loa22 of L. borgpetersenii sv. Ballum str. M2, endogenous (Leptospira borgpetersenii sv. Ballum str. M2 (endogenous in cultivated cells)); assay: SDS-PAGE and immunoblot of whole cell lysates; Leptospira cells in SDS-PAGE buffer (4% SDS, 2% β-ME), sonicated and heated (10 min, 99 °C); blot screened with anti-Loa22_(27-197) antiserum; oligomer read from the size of the bands
[2] = target: Loa22 of L. interrogans sv. Canicola str. Kito, endogenous (Leptospira interrogans sv. Canicola str. Kito (endogenous in cultivated cells)); assay: as above
[3] = target: Loa22 of L. interrogans sv. Copenhageni str. Fiocruz L1-130, endogenous (Leptospira interrogans sv. Copenhageni str. Fiocruz L1-130 (endogenous in cultivated cells)); assay: as above
[4] = target: Loa22 of L. interrogans sv. Pomona str. LC82-25, endogenous (Leptospira interrogans sv. Pomona str. LC82-25 (endogenous in cultivated cells)); assay: as above
[5] = target: Loa22 of L. kirschneri sv. Grippotyphosa str. RM52, endogenous (Leptospira kirschneri sv. Grippotyphosa str. RM52 (endogenous in cultivated cells)); assay: as above
[6] = target: Loa22 of L. noguchii sv. Autumnalis str. Bonito, endogenous (Leptospira noguchii sv. Autumnalis str. Bonito (endogenous in cultivated cells)); assay: as above
[7] = SEC; TSKgel G4000SWXL column, PBS as mobile phase, 1.0 mL/min; 50 µg recombinant protein injected (25 µL); MW from a standard curve of globular proteins; fractions checked by SDS-PAGE and immunoblot with anti-Loa22_(27-197) antiserum
[8] = target: recombinant Loa22_(27-197) (Leptospira OmpA-like 22 kDa protein) of L. interrogans sv. Copenhageni str. Fiocruz L1-130 (Leptospira interrogans sv. Copenhageni str. Fiocruz L1-130); assay: as above

Substance: Loa22 of L. borgpetersenii sv. Ballum str. M2, endogenous (natural protein)
- stoichiometry N [1]: 3

Substance: Loa22 of L. interrogans sv. Canicola str. Kito, endogenous (natural protein)
- stoichiometry N [2]: 3

Substance: Loa22 of L. interrogans sv. Copenhageni str. Fiocruz L1-130, endogenous (natural protein)
- stoichiometry N [3]: 3

Substance: Loa22 of L. interrogans sv. Pomona str. LC82-25, endogenous (natural protein)
- stoichiometry N [4]: 3

Substance: Loa22 of L. kirschneri sv. Grippotyphosa str. RM52, endogenous (natural protein)
- stoichiometry N [5]: 3

Substance: Loa22 of L. noguchii sv. Autumnalis str. Bonito, endogenous (natural protein)
- stoichiometry N [6]: 3

Substance: recombinant Loa22_(27-197) (Leptospira OmpA-like 22 kDa protein) of L. interrogans sv. Copenhageni str. Fiocruz L1-130
- percent of the protein as monomer (area under the SEC peaks) [7]: a majority of the recombinant protein exists as a monomer (89% of the total)

Substance: recombinant Loa22_(27-197) (Leptospira OmpA-like 22 kDa protein) of L. interrogans sv. Copenhageni str. Fiocruz L1-130 (domain or fragment)
- stoichiometry N [8]: 3
